From PMC6733935, “A convenient and efficient total solid-phase synthesis of DOTA-functionalized tumor-targeting peptides for PET imaging of cancer” (EJNMMI Research, 2019)
Numbered stars: 1 amine (or outer) side, 2 acyl side, 3 side chain; on linkers, the order of the positions; unused ones are H or OH. Square brackets hold non-standard residues; d marks the D form. Peptide text beside a SMILES is read from it. * marks the point of attachment. DOTA = O=C(O)CN1CCN(CC(=O)O)CCN(CC(=O)*)CCN(CC(=O)O)CC1; Cha = N[C@@H](CC1CCCCC1)C(=O)O; X1 = O=C(CCC(=O)[*:2])CN[*:1]; 4Abz = Nc1ccc(C(=O)O)cc1; Nle = CCCC[C@H](N)C(=O)O; Ahx = NCCCCCC(=O)O

Experiments:
[1] = assay type: physicochemical
Experimental: For lipophilicity determination, each HPLC-purified radiopeptide (~ 20 μL, ∼ 25 μCi) was added into a glass tube containing an equal volume mixture of n-octanol and water (1 mL each). The samples were vigorously vortexed for 5 min and subsequently centrifuged (5000 rpm, 5 min) to yield two immiscible layers. Duplicate samples (100 μL) from each layer were carefully taken (to avoid cross-contamination between the layers) for radioactivity measurement using a γ-counter. Partition coefficient was determined by the function: partition coefficient = Log10 (radioactivity in octanol layer/radioactivity in aqueous layer).

[2] = Radio-HPLC retention time as reflection of lipophilicity; assay type: physicochemical; details: chromatographic, econosphere C18 (10 μm, 250 × 4.6 mm), 0.1% TFA water/acetonitrile, 5 to 95% B over 30 min, 1.1 mL/min; radio detection; used as reflection of lipophilicity
Experimental: The HPLC analysis and purification of the peptides were performed on a Shimadzu HPLC system using econosphere C18 reversed-phase column (10 μm, 250 × 4.6 mm). For all HPLC experiments, a gradient system of 0.1% (v/v) TFA in water (solvent A) and 0.1% (v/v) TFA in acetonitrile (solvent B) at a flow rate of 1.1 mL/min was used. The HPLC gradient began with a solvent composition of 95% A and 5% B from 0 to 2.5 min followed by a linear gradient of 95% A and 5% B to 5% A and 95% B over 30 min. The gradient remained at this position for 3 min before switching back to 95% A and 5% B for another 7 min. The major peak isolated and the acetonitrile was then slowly evaporated under a stream of nitrogen gas. Radiochemical purity was estimated by evaluating radioactivity peaks eluted for each ^68Ga-labeled peptide from the HPLC column and calculating the area under the peak (ROI). The main peak of each radiopeptide was isolated and reconstituted in sterile saline for in vitro and in vivo experiments. Radiolabeling of DOTA-coupled BN peptides with ^68Ga was accomplished simply by mixing ~ 20 μg BN peptide with sodium acetate buffer and ^68GaCl3 followed by heating to complete the labeling reaction. By this facile method, a high and reproducible radiolabeling of peptides with ^68Ga was achieved (up to 95%), with a specific radioactivity of greater than 250 Ci/mmol. […] A radiolabeling efficiency of greater than 90% was obtained in all cases, and it ranged between 90 and 95%. […] RP-HPLC retention times of the major peaks, ranging from 18.3 to 20.3 min, reflected slightly variable lipophilicity of these ^68Ga-complexes (Table 1).

in vivo = assay type: in vivo, nude mice; details: female, nude, mouse, in vivo, total radioactivity; for dose excreted at 1 h / dose excreted at 2 h: Radioactivity in Urine + bladder
Method in brief: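 Female mice bore subcutaneous left-thigh xenografts of ~5 million MDA-MB-231 cells in PBS, grown 4-6 weeks to 200-300 mg. Animals received 20-30 μCi of 68Ga-labelled peptide and were sacrificed at set time points; tumour and organ uptake measured by γ-counting.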

[3] = tested on: BN/GRP receptor-positive MDA-MB-231 tumors; assay: Receptor blocking study in MDA-MB-231 tumor-bearing nude mice; assay type: in vivo
Experimental: For the receptor blocking studies, each animal was injected with excess cold of BN peptide (~ 200 μg) 20 min prior to the radiotracers injection. The animals (n = 2 per group) were sacrificed at 60 min post radiotracers injection and the % ID/g for the tumor and major organs was calculated as stated before.
^68Ga-labeled BN peptides were further investigated in nude mice carrying estrogen-independent and highly aggressive MDA-MB-231 xenografts in order to determine their potential for diagnosis of BN/GRP receptor-positive breast cancer in vivo (Table 4). […] (with 28% washout from the tumors over 2 h). […] When a blocking dose of 300 μg of nonradioactive BN peptide was injected intramuscularly for in vivo saturation of receptors 20 min prior to the administration of radiopeptide, it was observed that the uptake in the tumors was reduced by approximately 80% (0.47 ± 0.06% ID/g blocked vs. 2.32 ± 0.25% ID/g unblocked, P = 0.002), highlighting the specificity of the ^68Ga-labeled BN peptide for respective BN/GRP receptor-positive breast cancer cells. […] The tumor uptake values of other BN peptides varied from 1.78 ± 0.40% to 2.15 ± 0.33% ID/g at 1 h p.i and from 0.84 ± 0.13% to 1.37 ± 0.25% ID/g at 2 h p.i. (Table 4). With the blocking dose, good reduction in the tumors (from 51 to 80%) was attained validating the in vivo tumor receptor specificity of these radiolabeled BN peptides for BN/GRP receptor-positive breast cancer cells.

[4] = Uptake in Intestines (measured without their contents)

SMILES	Log P (octanol/water) [1]	Radio-HPLC tR [2] [min]	dose excreted at 1 h (in vivo) [%]	dose excreted at 2 h (in vivo) [%]	tissue uptake at 1 h (in vivo; Uptake in Blood) [%ID/g]	tissue uptake at 2 h (in vivo; Uptake in Blood) [%ID/g]	tissue uptake at 1 h (in vivo; [4]) [%ID/g]	tissue uptake at 2 h (in vivo; [4]) [%ID/g]	tissue uptake at 1 h (in vivo; Uptake in Kidneys) [%ID/g]	tissue uptake at 2 h (in vivo; Uptake in Kidneys) [%ID/g]	tissue uptake at 1 h (in vivo; Uptake in Liver) [%ID/g]	tissue uptake at 2 h (in vivo; Uptake in Liver) [%ID/g]	tissue uptake at 2 h (in vivo; Uptake in Lungs) [%ID/g]	tissue uptake at 1 h (in vivo; Uptake in Muscle) [%ID/g]	tissue uptake at 2 h (in vivo; Uptake in Muscle) [%ID/g]	tissue uptake at 1 h (in vivo; Uptake in Pancreas) [%ID/g]	tissue uptake at 2 h (in vivo; Uptake in Pancreas) [%ID/g]	tissue uptake at 1 h (in vivo; Uptake in Spleen) [%ID/g]	tissue uptake at 1 h (in vivo; Uptake in Stomach) [%ID/g]	tissue uptake at 2 h (in vivo; Uptake in Stomach) [%ID/g]	other results
CCCC[C@H](NC(=O)[C@H](Cc1c[nH]cn1)NC(=O)[C@H](CC1CCCCC1)NC(=O)[C@@H](NC(=O)[C@H](C)NC(=O)[C@H](Cc1c[nH]c2ccccc12)NC(=O)[C@H](CCC(N)=O)NC(=O)[C@H](CS)NC(=O)CNC(=O)CNC(=O)CCCCCNC(=O)CN1CCN(CC(=O)O)CCN(CC(=O)O)CCN(CC(=O)O)CC1)C(C)C)C(=O)N[C@@H](CCSC)C(N)=O [^68Ga-DOTA-Ahx-BN Tris-, metal not drawn] ({DOTA-Ahx}-GGCQWAV[Cha]H[Nle]M-NH2)	− 1.18 ± 0.06	18.3																			
CCCC[C@H](NC(=O)[C@H](Cc1c[nH]cn1)NC(=O)[C@H](CC1CCCCC1)NC(=O)[C@@H](NC(=O)[C@H](C)NC(=O)[C@H](Cc1c[nH]c2ccccc12)NC(=O)[C@H](CCC(N)=O)NC(=O)[C@H](CS)NC(=O)CNC(=O)CNC(=O)CCC(=O)CNC(=O)CN1CCN(CC(=O)O)CCN(CC(=O)O)CCN(CC(=O)O)CC1)C(C)C)C(=O)N[C@@H](CCSC)C(N)=O [^68Ga-DOTA-ALA-BN Tris-, metal not drawn] ({DOTA}-[X1]GGCQWAV[Cha]H[Nle]M-NH2)	− 0.88 ± 0.07	20.3																			
CCCC[C@H](NC(=O)[C@H](Cc1c[nH]cn1)NC(=O)[C@H](CC1CCCCC1)NC(=O)[C@@H](NC(=O)[C@H](C)NC(=O)[C@H](Cc1c[nH]c2ccccc12)NC(=O)[C@H](CCC(N)=O)NC(=O)[C@H](CS)NC(=O)CNC(=O)CNC(=O)CCC(=O)CNC(=O)CN1CCN(CC(=O)O)CCN(CC(=O)O)CCN(CC(=O)O)CC1)C(C)C)C(=O)N[C@@H](CCSC)C(N)=O [^68Ga-DOTA-ALA-BN Cyclen, metal not drawn] ({DOTA}-[X1]GGCQWAV[Cha]H[Nle]M-NH2)	− 0.80 ± 0.05	20.3	62 ± 6.28	71 ± 9.68	0.79 ± 0.13	0.37 ± 0.1	0.9 ± 0.12	0.6 ± 0.1	5.94 ± 0.63	3.2 ± 0.32	1.4 ± 0.26	1.12 ± 0.19	0.67 ± 0.13	0.3 ± 0.06	0.21 ± 0.03	1.05 ± 0.12	0.88 ± 0.11	0.26 ± 0.03	0.87 ± 0.19	0.46 ± 0.05	
CCCC[C@H](NC(=O)[C@H](Cc1c[nH]cn1)NC(=O)[C@H](CC1CCCCC1)NC(=O)[C@@H](NC(=O)[C@H](C)NC(=O)[C@H](Cc1c[nH]c2ccccc12)NC(=O)[C@H](CCC(N)=O)NC(=O)[C@H](CS)NC(=O)CNC(=O)CNC(=O)c1ccc(NC(=O)CN2CCN(CC(=O)O)CCN(CC(=O)O)CCN(CC(=O)O)CC2)cc1)C(C)C)C(=O)N[C@@H](CCSC)C(N)=O [^68Ga-DOTA-Abz-BN Cyclen, metal not drawn] ({DOTA-4Abz}-GGCQWAV[Cha]H[Nle]M-NH2)		19.2	61 ± 9.93	78 ± 5.89	1 ± 0.16	0.55 ± 0.1	0.95 ± 0.27	0.54 ± 0.16	6.03 ± 1	5 ± 0.77	2.54 ± 0.46	2 ± 0.37	1.15 ± 0.23	0.32 ± 0.06	0.26 ± 0.05	2.94 ± 0.43	1.18 ± 0.31	0.22 ± 0.07	1.34 ± 0.29	0.49 ± 0.12	tissue uptake at 1 h (in vivo; Uptake in Lungs): 2.8 ± 0.55 %ID/g; tissue uptake at 2 h (in vivo; Uptake in Spleen): 0.12 ± 0.02 %ID/g
CCCC[C@H](NC(=O)[C@H](Cc1c[nH]cn1)NC(=O)[C@H](CC1CCCCC1)NC(=O)[C@@H](NC(=O)[C@H](C)NC(=O)[C@H](Cc1c[nH]c2ccccc12)NC(=O)[C@H](CCC(N)=O)NC(=O)[C@H](CS)NC(=O)CNC(=O)CNC(=O)CCCCCNC(=O)CN1CCN(CC(=O)O)CCN(CC(=O)O)CCN(CC(=O)O)CC1)C(C)C)C(=O)N[C@@H](CCSC)C(N)=O [^68Ga-DOTA-Ahx-BN Cyclen, metal not drawn] ({DOTA-Ahx}-GGCQWAV[Cha]H[Nle]M-NH2)		18.3	64 ± 9.15	70 ± 8.7	0.92 ± 0.15	0.51 ± 0.07	0.86 ± 0.12	0.61 ± 0.06	4.93 ± 0.38	4.01 ± 0.41			0.36 ± 0.03	0.23 ± 0.03	0.19 ± 0.02	1.65 ± 0.14	0.82 ± 0.1	0.25 ± 0.02	0.73 ± 0.13	0.34 ± 0.05	tissue uptake at 2 h (in vivo; Uptake in Spleen): 0.14 ± 0.01 %ID/g; Tumor uptake, blocked ([3]; blocking dose of 300 μg nonradioactive BN peptide 20 min prior to radiopeptide, 1 h p.i., n = 2 per group): 0.47 ± 0.06 % ID/g; reduction of uptake in the tumors with blocking dose ([3]; blocking dose of nonradioactive BN peptide 20 min prior, 1 h p.i.): approximately 80%; blockade of uptake in pancreas with blocking dose ([3]; same blocking dose, maximum blockade): 80%
CCCC[C@H](NC(=O)[C@H](Cc1c[nH]cn1)NC(=O)[C@H](CC1CCCCC1)NC(=O)[C@@H](NC(=O)[C@H](C)NC(=O)[C@H](Cc1c[nH]c2ccccc12)NC(=O)[C@H](CCC(N)=O)NC(=O)[C@H](CS)NC(=O)CNC(=O)CNC(=O)c1ccc(NC(=O)CN2CCN(CC(=O)O)CCN(CC(=O)O)CCN(CC(=O)O)CC2)cc1)C(C)C)C(=O)N[C@@H](CCSC)C(N)=O [^68Ga-DOTA-Abz-BN Tris-, metal not drawn] ({DOTA-4Abz}-GGCQWAV[Cha]H[Nle]M-NH2)	− 1.04 ± 0.10	19.3																			
